The target in the assay is HTT^1-3144 Q23, C-terminally FLAG-tagged (human). Description: SEC-MALS. A general note: Size exclusion chromatography separates by hydrodynamic size, large species first.

Data on 1 substance can be found in article doi:10.1101/492215.

As a reminder, the stoichiometry N is a count of units in the complex or per binding partner.

Turning to “HTT^1-3144 Q23, C-terminally FLAG-tagged (natural protein)”, the stoichiometry N was determined as 2.
